Data as given in the supplement of paper PMC9428881.
± gives the standard error.

Assay: background-corrected fluorescence of 3'-dye-labeled ssDNA relative to brightest sequence (3'-GCGCG) (fraction); higher = brighter dye fluorescence (less quenching)
Method in brief: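 Subtracting background from unlabeled oligos and scaling to the brightest sequence gave the reported fluorescence. Single-stranded DNA bearing a 3' Cy3 or Cy5 dye next to each of 1024 permuted pentamers was assembled on glass slides by light-directed phosphoramidite synthesis. Following a 2 h r.t. acetonitrile wash, slides were scanned at 532 or 635 nm before and after overnight ethylenediamine/ethanol deprotection, and values were averaged over 10 features per array and at least 3 syntheses.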

Q: Which results are given for “TTTTTTGATGCTGATGATCATTTTTTTTTTTTTTTCACCG [GCCAC]”?
A: background-corrected fluorescence (dye: Cy3 (3' terminal)): 0.505 ± 0.024; background-corrected fluorescence (dye: Cy5 (3' terminal)): 0.423 ± 0.058

Q: For “TTTTTTGATGCTGATGATGATTTTTTTTTTTTTTTCACCC [CCCAC]”, which background-corrected fluorescence (dye: Cy3 (3' terminal)) is on record?
A: 0.37 ± 0.028

Q: What about the background-corrected fluorescence (dye: Cy5 (3' terminal)) of the same sequence?
A: 0.271 ± 0.019

Q: Which results are given for “TTTTTTGATGCTGATGATGCTTTTTTTTTTTTTTTCACCA [ACCAC]”?
A: background-corrected fluorescence (dye: Cy3 (3' terminal)): 0.493 ± 0.019; background-corrected fluorescence (dye: Cy5 (3' terminal)): 0.375 ± 0.043

Q: Which results are given for “TTTTTTGATGCTGATGCGCATTTTTTTTTTTTTTTCACAT [TACAC]”?
A: background-corrected fluorescence (dye: Cy3 (3' terminal)): 0.521 ± 0.02; background-corrected fluorescence (dye: Cy5 (3' terminal)): 0.368 ± 0.016

Q: What does the source list for “TTTTTTGATGCTGATGCTCATTTTTTTTTTTTTTTCACAG [GACAC]”?
A: background-corrected fluorescence (dye: Cy3 (3' terminal)): 0.481 ± 0.031; background-corrected fluorescence (dye: Cy5 (3' terminal)): 0.384 ± 0.019

Q: For “TTTTTTGATGCTGATGCTGATTTTTTTTTTTTTTTCACAC”, which background-corrected fluorescence (dye: Cy3 (3' terminal)) is on record?
A: 0.392 ± 0.006

Q: And the background-corrected fluorescence (dye: Cy5 (3' terminal))?
A: 0.311 ± 0.024

Q: For “TTTTTTGATGCTGATGCTGCTTTTTTTTTTTTTTTCACAA [AACAC]”, which background-corrected fluorescence (dye: Cy3 (3' terminal)) is on record?
A: 0.562 ± 0.022

Q: What about the background-corrected fluorescence (dye: Cy5 (3' terminal)) of the same sequence?
A: 0.411 ± 0.021

Q: With “TTTTTTGATGCTGCGCAGCATTTTTTTTTTTTTTTCAATT [TTAAC]” as the sequence, how does the background-corrected fluorescence (dye: Cy3 (3' terminal)) read?
A: 0.538 ± 0.027

Q: And the background-corrected fluorescence (dye: Cy5 (3' terminal))?
A: 0.385 ± 0.029

Q: Which background-corrected fluorescence (dye: Cy3 (3' terminal)) does the source give for “TTTTTTGATGCTGCGCATCATTTTTTTTTTTTTTTCAATG [GTAAC]” here?
A: 0.53 ± 0.029

Q: What about the background-corrected fluorescence (dye: Cy5 (3' terminal)) of the same sequence?
A: 0.364 ± 0.026

Q: Which results are given for “TTTTTTGATGCTGCGCATGATTTTTTTTTTTTTTTCAATC [CTAAC]”?
A: background-corrected fluorescence (dye: Cy3 (3' terminal)): 0.421 ± 0.026; background-corrected fluorescence (dye: Cy5 (3' terminal)): 0.284 ± 0.013

Q: For “TTTTTTGATGCTGCGCATGCTTTTTTTTTTTTTTTCAATA [ATAAC]”, which background-corrected fluorescence (dye: Cy3 (3' terminal)) is on record?
A: 0.574 ± 0.023

Q: And the background-corrected fluorescence (dye: Cy5 (3' terminal))?
A: 0.422 ± 0.042

Q: Which background-corrected fluorescence (dye: Cy3 (3' terminal)) does the source give for “TTTTTTGATGCTGCTCAGCATTTTTTTTTTTTTTTCAAGT [TGAAC]” here?
A: 0.629 ± 0.0081

Q: What about the background-corrected fluorescence (dye: Cy5 (3' terminal)) of the same sequence?
A: 0.478 ± 0.039

Q: For “TTTTTTGATGCTGCTCATCATTTTTTTTTTTTTTTCAAGG [GGAAC]”, which background-corrected fluorescence (dye: Cy3 (3' terminal)) is on record?
A: 0.579 ± 0.028

Q: What about the background-corrected fluorescence (dye: Cy5 (3' terminal)) of the same sequence?
A: 0.489 ± 0.029

Q: For “TTTTTTGATGCTGCTCATGATTTTTTTTTTTTTTTCAAGC [CGAAC]”, which background-corrected fluorescence (dye: Cy3 (3' terminal)) is on record?
A: 0.514 ± 0.024

Q: What about the background-corrected fluorescence (dye: Cy5 (3' terminal)) of the same sequence?
A: 0.426 ± 0.07

Q: Which background-corrected fluorescence (dye: Cy3 (3' terminal)) does the source give for “TTTTTTGATGCTGCTCATGCTTTTTTTTTTTTTTTCAAGA [AGAAC]” here?
A: 0.683 ± 0.036

Q: What about the background-corrected fluorescence (dye: Cy5 (3' terminal)) of the same sequence?
A: 0.543 ± 0.026

Q: For “TTTTTTGATGCTGCTGAGCATTTTTTTTTTTTTTTCAACT”, which background-corrected fluorescence (dye: Cy3 (3' terminal)) is on record?
A: 0.53 ± 0.011

Q: What about the background-corrected fluorescence (dye: Cy5 (3' terminal)) of the same sequence?
A: 0.342 ± 0.018

Q: Which background-corrected fluorescence (dye: Cy3 (3' terminal)) does the source give for “TTTTTTGATGCTGCTGATCATTTTTTTTTTTTTTTCAACG [GCAAC]” here?
A: 0.535 ± 0.022

Q: And the background-corrected fluorescence (dye: Cy5 (3' terminal))?
A: 0.408 ± 0.039

Q: For “TTTTTTGATGCTGCTGATGATTTTTTTTTTTTTTTCAACC [CCAAC]”, which background-corrected fluorescence (dye: Cy3 (3' terminal)) is on record?
A: 0.377 ± 0.027

Q: What about the background-corrected fluorescence (dye: Cy5 (3' terminal)) of the same sequence?
A: 0.265 ± 0.023

Q: For “TTTTTTGATGCTGCTGATGCTTTTTTTTTTTTTTTCAACA [ACAAC]”, which background-corrected fluorescence (dye: Cy3 (3' terminal)) is on record?
A: 0.489 ± 0.0058

Q: And the background-corrected fluorescence (dye: Cy5 (3' terminal))?
A: 0.368 ± 0.022

Q: What does the source list for “TTTTTTGATGCTGCTGCGCATTTTTTTTTTTTTTTCAAAT [TAAAC]”?
A: background-corrected fluorescence (dye: Cy3 (3' terminal)): 0.553 ± 0.017; background-corrected fluorescence (dye: Cy5 (3' terminal)): 0.41 ± 0.061

Q: What does the source list for “TTTTTTGATGCTGCTGCTCATTTTTTTTTTTTTTTCAAAG [GAAAC]”?
A: background-corrected fluorescence (dye: Cy3 (3' terminal)): 0.535 ± 0.017; background-corrected fluorescence (dye: Cy5 (3' terminal)): 0.396 ± 0.026

Q: With “TTTTTTGATGCTGCTGCTGATTTTTTTTTTTTTTTCAAAC” as the sequence, how does the background-corrected fluorescence (dye: Cy3 (3' terminal)) read?
A: 0.428 ± 0.03

Q: What about the background-corrected fluorescence (dye: Cy5 (3' terminal)) of the same sequence?
A: 0.323 ± 0.031

Q: Which background-corrected fluorescence (dye: Cy3 (3' terminal)) does the source give for “TTTTTTGATGCTGCTGCTGCTTTTTTTTTTTTTTTCAAAA [AAAAC]” here?
A: 0.569 ± 0.015

Q: What about the background-corrected fluorescence (dye: Cy5 (3' terminal)) of the same sequence?
A: 0.47 ± 0.03

Q: With “TTTTTTGCGCAGCAGCAGCATTTTTTTTTTTTTTTATTTT” as the sequence, how does the background-corrected fluorescence (dye: Cy3 (3' terminal)) read?
A: 0.488 ± 0.022

Q: What about the background-corrected fluorescence (dye: Cy5 (3' terminal)) of the same sequence?
A: 0.381 ± 0.02

Q: For “TTTTTTGCGCAGCAGCATCATTTTTTTTTTTTTTTATTTG [GTTTA]”, which background-corrected fluorescence (dye: Cy3 (3' terminal)) is on record?
A: 0.5 ± 0.026

Q: And the background-corrected fluorescence (dye: Cy5 (3' terminal))?
A: 0.355 ± 0.025

Q: With “TTTTTTGCGCAGCAGCATGATTTTTTTTTTTTTTTATTTC [CTTTA]” as the sequence, how does the background-corrected fluorescence (dye: Cy3 (3' terminal)) read?
A: 0.404 ± 0.0099

Q: What about the background-corrected fluorescence (dye: Cy5 (3' terminal)) of the same sequence?
A: 0.307 ± 0.019

Q: With “TTTTTTGCGCAGCAGCATGCTTTTTTTTTTTTTTTATTTA” as the sequence, how does the background-corrected fluorescence (dye: Cy3 (3' terminal)) read?
A: 0.545 ± 0.017

Q: And the background-corrected fluorescence (dye: Cy5 (3' terminal))?
A: 0.432 ± 0.031

Q: With “TTTTTTGCGCAGCATCAGCATTTTTTTTTTTTTTTATTGT [TGTTA]” as the sequence, how does the background-corrected fluorescence (dye: Cy3 (3' terminal)) read?
A: 0.589 ± 0.027

Q: What about the background-corrected fluorescence (dye: Cy5 (3' terminal)) of the same sequence?
A: 0.486 ± 0.037

Q: What does the source list for “TTTTTTGCGCAGCATCATCATTTTTTTTTTTTTTTATTGG [GGTTA]”?
A: background-corrected fluorescence (dye: Cy3 (3' terminal)): 0.549 ± 0.038; background-corrected fluorescence (dye: Cy5 (3' terminal)): 0.476 ± 0.055

Q: What does the source list for “TTTTTTGCGCAGCATCATGATTTTTTTTTTTTTTTATTGC [CGTTA]”?
A: background-corrected fluorescence (dye: Cy3 (3' terminal)): 0.525 ± 0.024; background-corrected fluorescence (dye: Cy5 (3' terminal)): 0.402 ± 0.051

Q: Which background-corrected fluorescence (dye: Cy3 (3' terminal)) does the source give for “TTTTTTGCGCAGCATCATGCTTTTTTTTTTTTTTTATTGA [AGTTA]” here?
A: 0.643 ± 0.018

Q: What about the background-corrected fluorescence (dye: Cy5 (3' terminal)) of the same sequence?
A: 0.555 ± 0.03

Q: Which background-corrected fluorescence (dye: Cy3 (3' terminal)) does the source give for “TTTTTTGCGCAGCATGAGCATTTTTTTTTTTTTTTATTCT [TCTTA]” here?
A: 0.45 ± 0.021

Q: What about the background-corrected fluorescence (dye: Cy5 (3' terminal)) of the same sequence?
A: 0.326 ± 0.021

Q: With “TTTTTTGCGCAGCATGATCATTTTTTTTTTTTTTTATTCG [GCTTA]” as the sequence, how does the background-corrected fluorescence (dye: Cy3 (3' terminal)) read?
A: 0.519 ± 0.034

Q: What about the background-corrected fluorescence (dye: Cy5 (3' terminal)) of the same sequence?
A: 0.388 ± 0.021

Q: Which results are given for “TTTTTTGCGCAGCATGATGATTTTTTTTTTTTTTTATTCC [CCTTA]”?
A: background-corrected fluorescence (dye: Cy3 (3' terminal)): 0.404 ± 0.016; background-corrected fluorescence (dye: Cy5 (3' terminal)): 0.272 ± 0.02
